Assay [1] addresses ICAM-1^D1D5-Fc (UniProt P05362). Kind of assay: SPR. As to conditions: for response: top curve of the dilution series (500 nM), read at end of injection (~300 s), parent: est. 240, read off a plot.
Assay [2] shares this target. Kind of assay: SPR; ICAM-1^D1D5-Fc immobilized to 850 RU on a CM5 chip precoupled with Protein A; IT4var13 DBLβ proteins 0.9 nM to 250 nM injected at 30 µL/min, 240 s association, 600 s dissociation; 20 mM Hepes, 300 mM NaCl, 0.005% Tween 20, pH 7.2; Biacore T200; global fit to a 2-state reaction model. In general terms: In SPR one partner is held on a chip, and binding of the other changes the refractive index at the surface.

The source of these data is PMC6778195.

ICAM-1^D1D5-Fc, sequence (P05362 28-480): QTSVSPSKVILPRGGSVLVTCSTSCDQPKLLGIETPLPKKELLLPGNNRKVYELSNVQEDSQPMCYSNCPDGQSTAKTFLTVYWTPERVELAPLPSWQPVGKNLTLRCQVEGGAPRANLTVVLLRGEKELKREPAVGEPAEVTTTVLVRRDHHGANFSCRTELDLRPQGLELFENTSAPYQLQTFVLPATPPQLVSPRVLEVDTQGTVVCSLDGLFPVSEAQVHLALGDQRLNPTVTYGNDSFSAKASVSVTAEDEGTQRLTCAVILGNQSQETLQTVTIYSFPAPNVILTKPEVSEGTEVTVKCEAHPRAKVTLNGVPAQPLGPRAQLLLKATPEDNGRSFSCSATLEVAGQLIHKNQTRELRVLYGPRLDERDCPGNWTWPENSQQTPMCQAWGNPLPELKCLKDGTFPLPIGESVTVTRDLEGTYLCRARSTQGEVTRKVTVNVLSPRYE

“IT4var13 DBLβ domain (wild type) (domain or fragment)” came in with an equilibrium dissociation constant (Kd) with ICAM-1^D1D5-Fc [1] of 1.22 nM.
Take J1a DBLβ domain (wild type) G1117A: the response with ICAM-1^D1D5-Fc [1] was 35 RU.
For the substance J1a DBLβ domain (wild type) Y1097A, the response with ICAM-1^D1D5-Fc [1] came out at 25 RU.
On to J1a DBLβ domain (wild type) L1096D, for which, in the assay with ICAM-1^D1D5-Fc [1], the response was determined as 140 RU.
As for “IT4var13 DBLβ Q1103A (domain or fragment)”, in the assay with ICAM-1^D1D5-Fc [2], the fold decrease in affinity against wild type amounted to 200 fold.
Take J1a DBLβ domain (wild type) L1093D: in the assay with ICAM-1^D1D5-Fc [1], the response is 260 RU.

By Kd is commonly meant the equilibrium constant for the complex coming apart. Read a high Kd as weaker binding.
